According to patent US20240026407A1, “MODIFICATION OF SAPONINS” (GLAXOSMITHKLINE BIOLOGICALS SA, priority 2020, published 2024):

B1: 1005 (protein, listed as Enterococcus casseliflavus)
chain: MTKKWQATWIEPQQEPTRKEPPFSLADMFSGKKVVQDPPEERLLPPHYLKKIFTVENKSIKQASLTMTAHGIYQAKINGQAVSEAIFAPDYTSYTQYLQYQTYDVTHMLKEKNVWSVTLADGWYAGRVSVSGGSAQFGDRLGILGEIEIYYTDGTYEIIVTDEDFVSSHGKYVYSDLFIGEKQDLRLEKENWETDFDLTGFTKVSKADYGFDHLTPQRGPQVKRQEKLAAKSIWWEKDAVIVDFGQVIAGRVQLQIPLADGQEITIEHSEVLDREGHFFNNIVGRNKDQKDVFIGNGREACLEPDFTFHGFRYIKIDGLDVLPDKQSVWAYAIYSDMKATGSFTTSNQKINQLIENIQWSQKGNMLSIPTDCPQRERVGWTGDIQVFGPTATFFMDVYDFLGRWLDNVRLEQQADGQIVDYTPAPRDYFEGESLTGSLSSAGWGDAIVLLPWTLYQRYGKLEILVENYQAMKRWLSFSRKSAAGDKTDDKQYLWDTKFHFGDWMFPSFMIGEDAKGPMETAFVTKDLFGTAFLAHSSQLFAQISQLLDEEEENWSDFSNKVKAAFQKYYWRDDHLTADFQGSYVIALAFDLLDETASKAAAARLTELIIANNYCLDTGFLSIPYLLDVLCDYGYQELALKLLLQEECPSWLYEVNHGATTIWESWASIQPDGTVCDFSFNHYAFGCVGDWLVRRLAGLQVTEPGFTFFTISPLEQTAISSYHLNYTTAYGDIEIERSNDQFHLSVPQNTKAIFQYGETSKVLTSGKHHLTIKGEKIYE
B2: 1060 (protein, listed as Lunatimonas lonarensis)
chain: MTKTFKIGFLLLACVVFVSCSENPKQADCGLCESVGAKWIQVEKELPTEDSLFYLPNPAPLFRKEFGVESHFDSAKLFITAAGYYKATLNGEAIGKNILDPAWTDYTKRVYYAEYDLSAQIQEGTNCFGVSLGNGFYNPLPMRKWGRRNPREDLNVGKPTFIARLVLYYPNGKTKEISTDESWKYSYGPLIKNSVYLGVLYDKGMEIPGWDRPGFNDTGWKSVQVGKGPGGQLQAAFFPAVQVTEEIRPKSIHEIEKDVYIVDMGVNFTGTYKIRLAGNVGDTVTLRFGERLYEDGTLNPMTTVVGQIKAPGIGGPGSPAIAWQTSSYVVDTEPTWFSPDFTYHTFRYMEITGLQKPPLLTDITGLYFHTNVERESHFTSSNSLLNQIQDATTRTFLSNLISVQSDCAVREKFGYGGDLNATAESFIYNFDMRDIYRKTVYDWVDAINDSIFVDTAPFAGIKYCGISWESAYLITQYYLYLYYDETDLVHELYEDNLAWMDKVARIHPEGMVDSGLSDHESLEPVPVQLTGTAHYLQCAEIMETFASLKGDTKNQQRFAELSEKLRAIIKAEFWDKPVTERINRQTLFSTLLFHRIIPEDELGAARDSLVQAVKNGPSGQFNTGIFGTKYVLETLSESVPIDQVYAIVNSTKFPGWGHMISRGATTIWETWQESDNVFTNCHPMFGTVTEWYYRWLGGIRPDPKQPGFKAFVLAPRTPTGLDSISCSYRSPYGDIVSNWRRESGNSVVYDLIIPVGSVASVSLDMKAAQGLSITKDGKAFQPPVTDASTPGEFKLEGGNYKVVVSG
B3: 1070 (protein, listed as Thermobaculum terrenum)
chain: MRKIIAQDPFTRNDPGIPWDQRGQWPASWVAARRLPSPPYVVAYRLAFVLPQAATATLHVTADERYELFLDSERVGRGSERGDADHWFYETYELELPAGPHTLVARVWSLGPLAPYAQLSVRHGFLLAAEPPLTEALSTGIAPWEAKRLEGYSWVNPSPAWGTGGNIALSAAQFPWGVERGEGDGWEPVEVVERAVGRLMALEAPPQHLLRPATLPAMLEVPIRVGRVRHVSAPSSEEVSSLPIRAEQALDEPEWQAMLEGRSSVTVPPHTTRRVIIDLEDYYCAYPELVTSGGEGGAVRLHWAESLYEDGRGRHKGDRDAIEGKYFRGVGDVFLPDGGDSRRFDTLWWQAGRYLELLVRTADSPLTVASLRLRETRYPLEMESAIATGDPDLDATIPLMVRAMQMCSHETYMDCPYYEQLMYAGDTRLEALVTYVMTRDDRLPRKALRMFDASRLASGLTQARYPSRVRQIIAPFALWWVAMVCDYAYWRPGTEYVRELMPGVRATMEAFERWRGSDGLLESPEGWNVTDWVPEWPAGIPPEGEWGRSGLLNWHLALVTRMVADLERALGNPQMAEHFGARAREIADAALRAFWVPSRGLMADDTACQRFSEHTQCLAILSGLLPPAIEEQVGRSLLEARDIARTTIYFSHYLFEACRKLGRVDVLLARLGLWRELVDKGLRTTIEAPEPTRSDCHAWGAHPLYHLFATFLGIRPAGLGFSAVEIAPQPAALRRLEGRLVHPRGDVWVAMEVDEEQIRARVRLPEAVPGVFCWGSRRVPLRPGEETDVVLPRAQG
B4: 994 (protein, listed as Catenulispora acidiphila)
chain: MLIRRRFATALALILAFAAVTPVASAAPSPSLSLSASSAGTEVSVSALQTDATTNPLGIDDPHPSLSWKLASQINGEYQSAYRIVVAGSQSDASAGVGSVWDSGEVASGNSVGIAYGGPALASEKTYYWAVQIWDEHGTASGWSAPAQWEMGLLNPGDWQGAQWISPTSASAASPLLRKDFTLAKPVARARAYVFGLGFYELHLNGGKVGDRVLEPASTPYAQRDLYAAYDVTGTVKQGGNAVGLWLGNGYDANFSQYGFRWLGPKQAIVLIDVTFSDGTHQAVTSDGSWTWSPSPITADGIYNGESYDARMVQPGWDAAGFSASSLQPVRTVAAPGGSLVADAMPPIRVTQTLNAVKLTSPSPGVYVYDFGQNVSGWEVLRTQGAAGSTVKMQTAEDLLANGTIDTTTNRNALSTDSYTLAGTGSTETYEPRFTYHGFRYVEVTGDPQTPVVSSLQARVVHADLASTSTFSSSDATLNQIWQNNQRTMLNNQMSTPTDNPVRDERTPPGMDVQAYHDASTAEFGMDTYYANYLRDMPPGTALPSDGGNAQQPDMGGDQVTLAWTLYQQYGDIATLAAMYPLMKKFVDTNATNVPGHIWSTGFGDWCPPDHSSNANGGMGNPSAGACTSEVPIVNTALSYLQASDVAKAATALGQAGDAAHYTQLAGDIANAFNAAFLNSDHASYGDGRETTSILPLAFGMVPAADVPAVGARLVDTVVRGNGGHLDTGIFGTRYLMDALAGIGRTDLAMTVLDQGTYPGYGFEIGKGATTDWEEWTYASSMESHDHAMFAGINASFASRLAGIEPTGPGYSTVSIAPQIPAGLQSVAASVSTVRGTVASSWSVSGGKVTMDVTVPVGATASVRVPSFGQGSVTTVSPAGAGAVQVSAGGTSSTYTVGSGSWEFTGSLVPASSTVLPGTWTQCAVETGNCSVAGTETVAFGAQGKYDYATVSGTVACSNTVFGDPDSGVSKACYAEPAPATTPGAWQQCAAETATCSFAGTETVAFGAQGKYTYATLTGGTPCTTTIFGDPAYGIPKSCFIEAPPPAATTWIPCAAETATCTLTASRDVAFGAHGDYAYRTANAPTTCTNAVFGDPAPGAVKACYLQ

experiment: Experiment 6-1: screening of rhamnosidases for derhamnosylation of saponins in treated bark extract (2%), QS-17 2310 to QS-18 2164 (PAR %); type: biochemical, Quillaja saponaria; details: TBE 2%, pH 7.5, 30 degC, 18 h; TIC peak area ratio percent, LCMS/MS; negative controls 3.061, 2.429

Row | Molecule | Peak57 (PAR %)
1 | B1 | 2.799%
2 | B2 | 2.888%
3 | B3 | 3.311%
4 | B4 | 3.300%

experiment: Experiment 6-1: specificity of rhamnosidases towards other rhamnose residues (C3 saccharide rhamnose, C28 saccharide rhamnose); type: biochemical, Quillaja saponaria; details: TBE 2%, pH 7.5, 30 degC, 18 h; LCMS/MS; negative controls 0.18, 0.17

Row | Molecule | ratio PP/QS-21
5 | B1 | 0.17
6 | B2 | 0.15
7 | B3 | 0.18
8 | B4 | 0.16

experiment: Experiment 6-1: screening of rhamnosidases for derhamnosylation of saponins in treated bark extract (2%), QS-17 2296 to QS-18 2150 (PAR %); type: biochemical, Quillaja saponaria; details: TBE 2%, pH 7.5, 30 degC, 18 h; TIC peak area ratio percent of rhamnosylated starting saponin to derhamnosylated product, LCMS/MS; negative controls 4.876, 5.225

Row | Molecule | QS-17 (PAR %)
9 | B1 | 5.166%
10 | B2 | 5.159%
11 | B3 | 5.168%
12 | B4 | 5.177%

experiment: Experiment 6-1: screening of rhamnosidases for derhamnosylation of saponins in treated bark extract (2%), desglucosyl-QS-17 2134 to QS-21 1988 (PAR %); type: biochemical, Quillaja saponaria; details: TBE 2%, pH 7.5, 30 degC, 18 h; TIC peak area ratio percent, LCMS/MS; negative controls 2.719, 2.158

Row | Molecule | Peak75 (PAR %)
13 | B1 | 2.767%
14 | B2 | 2.382%
15 | B3 | 2.275%
16 | B4 | 2.147%
